Laboratory results published in patent publication US20250339531A1, “DUX4 POLYPEPTIDES AND NUCLEIC ACIDS FOR TREATING INFLAMMATORY AND AUTOIMMUNE CONDITIONS” (Fred Hutchinson Cancer Center, priority 2021, published 2025).
Entries after “also recorded” stand apart in the source; their conditions may differ.

Assays:
[1] = tested on: interferon-stimulated genes IFIH1, ISG20, CXCL9, and CD74; assay: IFNG induction of interferon-stimulated genes, RT-qPCR in MB135 cells with doxycycline-inducible transgenes; assay type: cell-based, human; settings: MB135 cells, doxycycline-induced transgene, continuous protocol, IFNG 16 h
Description: All myoblast experiments were conducted in immortalized MB135 or MB200 myoblast cell lines (isolated from a control or FSHD2 subject, respectively cultured in Ham's F-10 Nutrient Mix (Gibco) supplemented with 15% fetal bovine serum (Hyclone), 100 U/100 μg/ml penicillin/streptomycin (Gibco), 1 μM dexamethasone (Sigma), and 10 ng/ml recombinant human basic fibroblast growth factor (PeproTech). To differentiate the myoblasts to myotubes, media was changed to DMEM supplemented with 10 μg/ml insulin (Sigma) and 10 μg/ml transferrin (Sigma). Cell lines containing doxycycline-inducible transgenes were additionally cultured with 2 μg/mL puromycin (Sigma). Transgenes were induced with 1 μg/mL of doxycycline (Sigma) for 4 hours prior to other treatments for a total of 20 hrs. The Kitra-SRS cells (RRID:CVCL_YI69) were provided by Dr. H. Otani and Osaka University (Nakai et al., 2019) and were cultured in DMEM supplemented with 10% fetal bovine serum (Hyclone) and 100 U/100 μg/ml penicillin/streptomycin (Gibco). Biological replicates consisted of independent but parallel experiments, such as simultaneously stimulating three cell culture plates with IFNγ. Technical replicates consisted of repeat measurements of the same biological sample, such as loading the same biological sample in triplicate for analysis by RT-qPCR.
Myoblasts were transfected with either (final concentrations) 10 μM 2′,3′-cGAMP (Sigma Aldrich), 2 μg/mL poly(I:C) (Invitrogen), or 1 μg/mL 3′ppp-dsRNA RIG-I ligand (Dan Stetson Lab, UW) using Lipofectamine 2000 according to manufacturer's protocol, or were stimulated with 1000U IFNβ (PeproTech) or 200 ng/ml IFNγ (R+D Systems) by addition directly to cell culture medium. After 16 hours of immune stimulation, RNA was collected from cells using the NucleoSpin RNA Kit (Macherey-Nagel) according to manufacturer's instructions. RNA samples were quantified by nanodrop and 1 μg of RNA per sample was treated with DNase I Amplification Grade (Thermo Fisher), and then synthesized into cDNA using the Superscript IV First-Strand Synthesis System, including oligo dT primers (Invitrogen). qPCR was run in 384-well plates on an Applied Biosystems QuantStudio 6 Flex Real-Time PCR System (ABI) and analyzed in Microsoft Excel.

STAT1 = assay: Anti-FLAG co-immunoprecipitation and western blot for STAT1; assay type: binding, human; settings: anti-FLAG IP from MB135 cells ± IFNG
Description: Centrifugation at 2500 rcf at 4° C. for 5 min pelleted the nuclei, supernatant was discarded, and nuclei resuspended in 1 mL IP buffer pH 7.4 (25 mM Tris-HCl pH 7.5, 175 mM NaCl, 1 mM EDTA, 0.2% NP-40, 5% glycerol) and incubated for 1 hour at 4° C. with rotation then spun at 21000 rcf for 10 minutes at 4° C. to pellet insoluble debris. Protein concentration was determined using the Pierce BCA Protein Assay Kit (ThermoFisher, 23225). An equivalent amount of protein per sample was pre-cleared with Dynabeads Protein G (Invitrogen) bound to mouse IgG (Abcam #131368) for 1 hour at 4° C. with rotation. FLAG-tagged constructs were then immunoprecipitated with Dynabeads Protein G beads coupled to mouse anti-FLAG M2 mAb (Sigma F3165) for 3 hours at 4° C. with rotation. Beads were washed 3× with 1 mL IP buffer and eluted by adding 2× NuPage LDS Sample Buffer (Thermo Fisher, diluted from 4× with PBS) to the beads and heating for 10 minutes at 70° C.
Antibodies against STAT1 [EPR4407] (ab109320), pSTAT1 Y701 [M135] (ab29045), pSTAT1 S727 [EPR3146] (ab109461), YBX1 [EP2708Y] (ab76149), PABPC1 (ab21060), hnRNPM [EPR13509 (B)] (ab177957), PRKDC [Y393] (ab32566), and HSP90AB1 [EPR16621] (ab203085) were purchased from Abcam. Antibodies against FLAG tag [M2] (F1804) and [M2] (F3146) were purchased from Sigma Aldrich. Antibodies against DDX3X [D19B4] (8192S), hnRNPK [R332] (4675S), TRIM28 [C42G12] […]

pSTAT1-Y701, pSTAT1-S727 = target: T1, pSTAT1-Y701, pSTAT1-S727 (Homo sapiens, UniProt P42224); assay: Western analysis of whole-cell extracts for STAT1 and pSTAT1; assay type: cell-based; settings: doxycycline and IFNG
T1 construct: co-localization of endogenous STAT1 and pSTAT1 701 with the iDUX4-CTD; endogenous in cells; host or cells: MB135 human myoblasts carrying doxycycline-inducible DUX4 / DUX4-CTD / DUXB / Dux transgenes, with or without IFNG
T1 sequence (P42224 1-750): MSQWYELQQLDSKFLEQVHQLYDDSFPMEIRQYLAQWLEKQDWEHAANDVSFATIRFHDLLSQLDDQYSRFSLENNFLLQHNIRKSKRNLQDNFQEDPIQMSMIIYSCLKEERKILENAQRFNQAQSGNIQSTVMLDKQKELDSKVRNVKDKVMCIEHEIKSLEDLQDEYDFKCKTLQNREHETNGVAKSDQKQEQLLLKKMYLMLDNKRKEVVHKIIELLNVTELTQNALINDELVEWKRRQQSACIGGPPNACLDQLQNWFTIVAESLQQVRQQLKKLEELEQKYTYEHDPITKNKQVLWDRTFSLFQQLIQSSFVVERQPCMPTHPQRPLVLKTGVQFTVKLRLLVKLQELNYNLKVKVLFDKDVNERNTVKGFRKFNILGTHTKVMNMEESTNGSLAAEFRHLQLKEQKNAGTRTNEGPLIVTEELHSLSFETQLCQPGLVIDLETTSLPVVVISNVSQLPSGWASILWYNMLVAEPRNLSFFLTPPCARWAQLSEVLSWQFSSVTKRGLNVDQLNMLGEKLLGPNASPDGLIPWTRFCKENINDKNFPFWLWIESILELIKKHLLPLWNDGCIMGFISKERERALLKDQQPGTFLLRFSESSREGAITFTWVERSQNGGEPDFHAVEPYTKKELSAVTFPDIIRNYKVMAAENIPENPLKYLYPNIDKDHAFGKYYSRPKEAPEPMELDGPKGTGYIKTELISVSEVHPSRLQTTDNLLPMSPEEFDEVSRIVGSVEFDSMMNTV
Description: Protein samples were harvested in RIPA buffer [150 mM NaCl, 1% NP-40, 0.5% Na-deocycholate, 1% SDS, 25 mM Tris-HCl pH7.4] supplemented with protease and phosphatase inhibitor tablets (Pierce), followed by sonication in Diagenode Bioruptor. Lysate was cleared by centrifugation at 16000×g and quantified using a Pierce BCA assay (Thermo Fisher Scientific). Samples were run on NuPAGE precast polyacrylamide gels (Invitrogen) and transferred to PVDF membrane. Membranes were blocked in PBS containing 0.1% Tween-20 and 5% non-fat dry milk before overnight incubation at 4° C. with primary antibodies (see resource table for a list of antibodies used in this study). Membranes were incubated with horseradish peroxidase-conjugated secondary antibodies for 1 hour at room temperature and SuperSignal chemiluminescent substrate (Thermo Scientific) was used for detection on film with a Mini-medical 90 processor. Membranes were stripped with Restore Western Blot Stripping Buffer (Pierce).

B1: longCTDmL1dL2: longCTD with first (L)LxxL(L) motif disrupted and second deleted, SEQ ID NOS: 10 and 11 (protein)
chain: MDYKDHDGDYKDHDIDYKDDDDKPPKRMRREPKKKRKVGRAPAQAGGLCSAAPGGGHPAPSWVAFAHTGAWGTGLPAPHVPCAPGALPQGAFVSQAARAAPALQPSQAAPAEGISQPAPARGDFAYAAPAPPDGALSHPQAPRWPPHPGKSREDRDPQRDGLPGPCAVAQPGPAQAGPQGQGVLAPPTSQGSPWWGWGRGPQVAGAAWEPQAGAAPPPQPAPPDASASARQGQMQGIPAPSQALQEPAPWSALPCGLLAAEAAASPEFLQQAQPLLETEAPGELEASEEAASLEAPLSEEEYRA
[1]
  suppression of IFNG induction of ISGs (IFIH1, ISG20, CXCL9, CD74): does not suppress any of the IFNG-induced ISG genes
[1]; listed as iDUX4-CTDmL1dL2
  suppression of IFNG induction of ISGs (IFIH1, ISG20, CXCL9, CD74): did not block the panel of ISGs
STAT1
  co-immunoprecipitation with STAT1 / phosphorylated STAT1: both show binding to STAT1; also recorded: STAT1 is associated

B2: mouse Dux: mouse ortholog of human DUX4, SEQ ID NO:15, doxycycline inducible codon altered SEQ ID NO:16 (protein, listed as Mus musculus)
chain: MAEAGSPVGGSGVARESRRRRKTVWQAWQEQALLSTFKKKRYLSFKERKELAKRMGVSDCRIRVWFQNRRNRSGEEGHASKRSIRGSRRLASPQLQEELGSRPQGRGMRSSGRRPRTRLTSLQLRILGQAFERNPRPGFATREELARDTGLPEDTIHIWFQNRRARRRHRRGRPTAQDQDLLASQGSDGAPAGPEGREREGAQENLLPQEEAGSTGMDTSSPSDLPSFCGESQPFQVAQPRGAGQQEAPTRAGNAGSLEPLLDQLLDEVQVEEPAPAPLNLDGDPGGRVHEGSQESFWPQEEAGSTGMDTSSPSDSNSFCRESQPSQVAQPCGAGQEDARTQADSTGPLELLLLDQLLDEVQKEEHVPVPLDWGRNPGSREHEGSQDSLLPLEEAVNSGMDTSIPSIWPTFCRESQPPQVAQPSGPGQAQAPTQGGNTDPLELFLYQLLDEVQVEEHAPAPLNWDVDPGGRVHEGSWESFWPQEEAGSTGLDTSSPSDSNSFFRESKPSQVAQRRGAGQEDARTQADSTGPLELLLFDQLLDEVQKEEHVPAPLDWGRNPGSMEHEGSQDSLLPLEEAANSGRDTSIPSIWPAFCRKSQPPQVAQPSGPGQAQAPIQGGNTDPLELFLDQLLTEVQLEEQGPAPVNVEETWEQMDTTPDLPLTSEEYQTLLDML
[1]
  suppression of IFNG induction of ISGs (IFIH1, ISG20, CXCL9, CD74): completely blocked the IFNG induction of these ISG genes
[1]; listed as Dux
  suppression of IFNG induction of ISGs (IFIH1, ISG20, CXCL9, CD74): repress the panel of ISGs even more robustly than the full-length or CTD portion of human DUX4
[1]; listed as mouse DUX
  suppression of IFNG induction of ISGs (IFIH1, ISG20, CXCL9, CD74): completely blocked
STAT1
  co-immunoprecipitation with STAT1 / phosphorylated STAT1: confirmed the co-immunoprecipitation of STAT1 and both phosphorylated pSTAT1-Y701 and pSTAT1-S727

B3: DUXB: related factor in the DUX family, doxycycline-inducible 3×FLAG-NLS-DUXB control, SEQ ID NO:106 (protein)
chain: DYKDHDGDYKDHDIDYKDDDDKPPKRMRREPKKKRKVNLEGTSGGILQKEFWRNRIQYNQSQKDILQSWFQHDPFPDKAAREQLAKEIGVPESNIQVWFKNYRVKQRKLDYKCFSEKDQTQGHDQSQHLTQEYLPKEARQKQTFITWTQKNRLVQAFERNPFPDIATRKKLAEQTGLQESRIQMWFQKQRSLYLKKSRMEPMNLLVDDPNERPDATVGWHPINLFLPTDSSHYFSCSHSSSGHETLPPVLPSTQAPWDPFRFHVSQGPNVMIMQPTQAVQEGEKSDQPLIIPNHLLTLPILTKDLDTPTPFWLQYQEEHQNHKEHSGSGVPQVKSHSQPEPEHREQQPLNLGQFDISNILQRWDEICQALLAEWEPLKGTH
modifications: 3xFLAG-NLS tag
[1]
  suppression of IFNG induction of ISGs (IFIH1, ISG20, CXCL9, CD74): did not suppress ISG induction by IFNG
pSTAT1-Y701, pSTAT1-S727
  abundance of pSTAT1 and total STAT1: did not increase either form of phosphorylated STAT1
